Drawing on the RNAGym collection of RNA variant scans (doi:10.7554/elife.80360), this text covers self-cleavage for 167 variants.

The chains are these.
B1: Hairpin Ribozyme (parent)
chain: GUCCUCUUUCACGUGCGCGUGAAAGAGAGAAGUGAACCAGAGAAACACACGUUGUGGUAUAUUACCUGGUA

The variants in the series derive from B1. Put plainly: self-cleavage, relative activity (ratio to wild type); higher = more cleavage; co-transcriptional.
On to A23G U70C, for which the self-cleavage turned out to be 0.934.
For A41U C66G the value was 0.172; for C46G C65U, 0.107; for U7A A41G, 0.973.
For U20G G32A the value was 0.124; for A36C U52C, 0.556.
For the variant G54C, the self-cleavage was 0.433.
For C3G G68U the value was 0.102; for G17A A49G, 0.62.
As for U70A, the figure is 0.926; as for C38A U63G, 0.165; as for C38A U63A, 0.0537.
For A23U A45U the value was 0.2; for A30C C38G, 0.0718.
G40C G42C: the self-cleavage came to 0.107.
With G15U A41C, the self-cleavage was found to be 1.11.
In the case of A22C G42C, the self-cleavage was 0.291.
G17U A36G: the self-cleavage was 1.06.
As for C16U C50U, the figure is 0.366; as for A41G U58A, 0.46; as for G29U G51U, 0.121.
For A45C U52A the value was 0.0823.
For A26G U67C the value was 0.263.
With U2G U8G, the self-cleavage is 0.471.
For G13A A71U the value was 0.746; for U20C A61G, 0.0608.
As for G29A A59C, the figure is 0.138; as for G19U G34C, 1.36.
As for U14C G40C, the figure is 0.156; as for G1U U7C, 0.0995; as for C16G A41C, 1.12.
For U7G G15C, the self-cleavage worked out at 0.836.
As for U58G U67A, the figure is 0.181; as for C37G U67C, 0.167; as for A11C G42A, 0.278.
For C18U U67C the value was 0.249.
As for G13A A23G, the figure is 0.767; as for C16G A43U, 0.157; as for C18A U52C, 1.05.
Take G57U U58A: the self-cleavage was found to be 0.309.
G29C A41U: the self-cleavage is 0.103.
As for U9A G34U, the figure is 1.19; as for U7C A30U, 0.257.
As for C18U A44U, the figure is 0.15.
As for C18U A44G, the figure is 0.113.
Turning to G15C U52C, the self-cleavage was found to be 1.05.
For U8A A24U the value was 0.571; for A39U G54C, 0.0503.
For U5A A26G the value was 0.244.
For U7A G29C the value was 0.149.
A61G: the self-cleavage amounted to 0.183.
As to G17A G42U, the self-cleavage turned out to be 0.273.
For U8G G34C the value was 1.19.
With U52C C65U, the self-cleavage came out at 0.471.
As for A49U U58A, the figure is 0.187; as for C4A U67C, 0.0871.
For G17C G42A the value was 0.176; for A28G U55G, 0.427; for U9A G21U, 0.732.
As for C6U C16G, the figure is 0.65; as for U55A U62G, 0.0995; as for G15A A28U, 0.588.
As to C6G U9G, the self-cleavage was 0.208.
As for G32U A41G, the figure is 0.0256; as for U5C U53A, 0.535; as for A11C U62C, 0.278.
As for U5A G29U, the figure is 0.0792; as for U8A A39C, 0.396; as for U7A U60C, 0.923.
As to A47G A61U, the self-cleavage was found to be 0.195.
A44C A49U: the self-cleavage was 0.0612.
As for C12A U60A, the figure is 0.621; as for A41U U55A, 0.808.
For U9G G42A the value was 0.109; for A41U U58A, 1.2; for G32A U58C, 0.184.
For C4G C10G the value was 0.114; for C6G U53A, 0.585.
With U2C A43G, the self-cleavage was found to be 0.167.
For U2G A61U the value was 0.191; for C12U C65A, 0.88.
As for U33C A71U, the figure is 0.144.
A47G A59U: the self-cleavage was 0.186.
As for U20A A47U, the figure is 0.274; as for A43G G68C, 0.0248; as for A41C C50U, 0.713.
As for G25C G29A, the figure is 0.13; as for G51A C66A, 0.344.
Take U55G U58A: the self-cleavage amounted to 0.199.
In the case of C4U A47G, the self-cleavage is 0.0924.
For C10A C18U the value was 0.809; for C10A C18A, 0.708.
As for U53A U63C, the figure is 0.156; as for U7A U67C, 0.25; as for C4U G25C, 0.11.
As for G42C A61U, the self-cleavage was 0.136.
Take C37U U55A: the self-cleavage is 0.143.
As for U9G U67G, the figure is 0.279.
As for G40U G42U, the figure is 0.116; as for G56A G69C, 0.108.
Consider U20G C65G, for which the self-cleavage is 0.177.
For U20G U70C the value was 0.783; for G21C A22U, 0.715; for G25C A61C, 0.0596.
For U7A A44G the value was 0.201; for U5A U7A, 0.105; for A30U U62A, 0.177.
As to A24U U63C, the self-cleavage came to 0.233.
Turning to U5A G56A, the self-cleavage was found to be 0.214.
As for G15A A71G, the figure is 0.943; as for G27U A61U, 0.107.
As for U14A A59C, the figure is 0.179.
For A35U A49C the value was 0.17; for G25A A45C, 0.109.
For C37U U70C, the self-cleavage is 0.603.
In the case of C4A U8G, the self-cleavage came out at 0.0842.
For G19A A28U the value was 0.408; for C4A G25A, 0.169; for C4G G19U, 0.225.
Turning to A45G G51C, the self-cleavage was 0.176.
For A43G U53A the value was 0.152; for U8G A36C, 0.5.
For C10G C65U the value was 0.307; for A49G A64U, 0.0802; for G19C A35C, 0.832.
Turning to G1C U60C, the self-cleavage was found to be 0.314.
As for U8G A59U, the figure is 0.188; as for G13A G51C, 0.68.
As for G19C U53A, the figure is 0.861; as for A35U U58A, 0.464; as for A31C G68U, 0.122.
On to G54A C65G, for which the self-cleavage stood at 0.107.
For A26U A31U the value was 0.0397.
For U8C U60C the value was 1.23; for C4A U63C, 0.115; for G54C A64U, 0.155.
For C12A G29C the value was 0.0897; for A43C U52A, 0.136; for U14A G42U, 0.308.
Turning to A31G U70G, the self-cleavage worked out at 0.376.
For G1A C18A the value was 0.185.
As for G29C A43U, the figure is 0.0794; as for G40C G54A, 0.124; as for A35G U62A, 0.368.
As for A23G A31G, the figure is 0.416; as for C18U A30G, 0.151; as for G19U A28C, 0.357.
As to U60C A64C, the self-cleavage came to 0.201.
As for U55C A71C, the figure is 0.596; as for C4U G13C, 0.282; as for G34U U67G, 0.658.
For U2G G32C the value was 0.155; for C16A G19U, 0.862.
As for U7C U67A, the self-cleavage is 0.167.
As for A24G C50A, the figure is 0.187.
As for C37G A43U, the figure is 0.177; as for C3U A31G, 0.296; as for G40C G68C, 0.0987.
For A35G A47G the value was 0.142; for U5G U9C, 0.197; for C3G A23U, 0.28.
In the case of U33G G56U, the self-cleavage was found to be 0.244.
For U53A G54A the value was 0.68; for U9A A61G, 0.148; for C38U C66U, 0.192.
For G17C U58A the value was 0.453.
Take A47G U60A: the self-cleavage was found to be 0.139.
